This note sets out measurements from IntAct's records for PubMed 29039417.

B1: BBSome complex member BBS2 (Homo sapiens), Q9BXC9 (parent)
chain: MLLPVFTLKLRHKISPRMVAIGRYDGTHPCLAAATQTGKVFIHNPHTRNQHVSASRVFQSPLESDVSLLSINQAVSCLTAGVLNPELGYDALLVGTQTNLLAYDVYNNSDLFYREVADGANAIVLGTLGDISSPLAIIGGNCALQGFNHEGSDLFWTVTGDNVNSLALCDFDGDGKKELLVGSEDFDIRVFKEDEIVAEMTETEIVTSLCPMYGSRFGYALSNGTVGVYDKTSRYWRIKSKNHAMSIHAFDLNSDGVNELITGWSNGKVDARSDRTGEVIFKDNFSSAIAGVVEGDYRMDGHIQLICCSVDGEIRGYLPGTAEMRGNLMDTSAEQDLIRELSQKKQNLLLELRNYEENAKAELASPLNEADGHRGIIPANTRLHTTLSVSLGNETQTAHTELRISTSNDTIIRAVLIFAEGIFTGESHVVHPSIHNLSSSICIPIVPPKDVPVDLHLKAFVGYRSSTQFHVFESTRQLPRFSMYALTSLDPASEPISYVNFTIAERAQRVVVWLGQNFLLPEDTHIQNAPFQVCFTSLRNGGHLHIKIKLSGEITINTDDIDLAGDIIQSMASFFAIEDLQVEADFPVYFEELRKVLVKVDEYHSVHQKLSADMADHSNLIRSLLVGAEDARLMRDMKTMKSRYMELYDLNRDLLNGYKIRCNNHTELLGNLKAVNQAIQRAGRLRVGKPKNQVITACRDAIRSNNINTLFKIMRVGTASS
partner: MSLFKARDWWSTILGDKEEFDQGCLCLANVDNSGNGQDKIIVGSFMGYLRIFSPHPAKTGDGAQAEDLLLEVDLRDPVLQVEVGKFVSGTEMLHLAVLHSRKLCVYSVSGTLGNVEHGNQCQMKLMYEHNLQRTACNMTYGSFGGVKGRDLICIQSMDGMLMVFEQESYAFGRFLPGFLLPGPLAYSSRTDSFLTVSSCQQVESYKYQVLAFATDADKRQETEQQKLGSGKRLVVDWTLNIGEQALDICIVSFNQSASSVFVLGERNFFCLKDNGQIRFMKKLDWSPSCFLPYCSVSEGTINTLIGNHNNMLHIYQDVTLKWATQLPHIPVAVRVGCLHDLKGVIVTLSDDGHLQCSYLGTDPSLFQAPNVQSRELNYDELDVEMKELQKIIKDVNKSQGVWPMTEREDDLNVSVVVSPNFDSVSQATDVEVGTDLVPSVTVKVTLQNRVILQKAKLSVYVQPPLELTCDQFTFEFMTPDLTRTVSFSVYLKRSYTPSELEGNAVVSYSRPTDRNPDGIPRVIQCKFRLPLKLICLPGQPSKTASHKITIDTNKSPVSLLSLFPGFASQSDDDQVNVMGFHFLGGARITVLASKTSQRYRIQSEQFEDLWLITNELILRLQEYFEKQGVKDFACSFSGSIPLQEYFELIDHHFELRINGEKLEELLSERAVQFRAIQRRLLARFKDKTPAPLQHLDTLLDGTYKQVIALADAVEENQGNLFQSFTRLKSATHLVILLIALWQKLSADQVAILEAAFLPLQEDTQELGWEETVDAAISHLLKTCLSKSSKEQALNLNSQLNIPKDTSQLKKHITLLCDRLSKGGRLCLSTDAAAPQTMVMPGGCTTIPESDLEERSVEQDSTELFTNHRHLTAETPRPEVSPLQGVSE

The variants in the experiment derive from B1. As to conditions: with pthb1_human BBS9, Q3SYG4.
D579K: the “effect of a mutation on the interaction” value is “with no effect”. Next, R413A: “with no effect”. The entry for L710K is “with no effect”; for S407K it is “with no effect”. For the variant S407E, the “effect of a mutation on the interaction” value is “with no effect”. Next, G462A: “with no effect”; D409K: “with no effect”.

On to Y644E, for which the “effect of a mutation on the interaction” value is “with no effect”.

In the case of N500A, the “effect of a mutation on the interaction” value was “with no effect”. The entry for S623K is “with no effect”. Take T400E: the “effect of a mutation on the interaction” value is “with no effect”. Next, T400A: “with no effect”; S438A: “with no effect”; I556E: “with no effect”.

For A674E, the “effect of a mutation on the interaction” value is “with no effect”. Next, L455A: “with no effect”; Y484A: “disrupting interaction strength”. Next, H545E: “with no effect”. The entry for I713K is “with no effect”; for E553K it is “with no effect”; for A719E it is “with no effect”.

Turning to N651K, the “effect of a mutation on the interaction” value is recorded as “with no effect”. Next, S465A: “with no effect”. The entry for S465K is “with no effect”; for P447E it is “with no effect”.

Consider P447A, for which the “effect of a mutation on the interaction” value is on record as “with no effect”. For the variant S488K, the “effect of a mutation on the interaction” value is on record as “with no effect”. The entry for V471A is “disrupting interaction strength”; for D700A it is “with no effect”. Regarding F575E, the “effect of a mutation on the interaction” value is “with no effect”. As to M637A, the “effect of a mutation on the interaction” value is listed as “with no effect”. Next, M637K: “with no effect”. Next, R661A: “with no effect”; M640E: “with no effect”; V626A: “with no effect”. For the variant D450E, the “effect of a mutation on the interaction” value was “with no effect”.

Regarding D585E, the “effect of a mutation on the interaction” value is “with no effect”. Next, L457A: “with no effect”; I376K: “with no effect”. The entry for M483K is “disrupting interaction strength”. The entry for M483E is “disrupting interaction strength”. As to R652A, the “effect of a mutation on the interaction” value is “with no effect”. As for H399E, the “effect of a mutation on the interaction” value is listed as “with no effect”. As for L655A, the “effect of a mutation on the interaction” value is listed as “with no effect”. The entry for D454A is “with no effect”. Consider D454E, for which the “effect of a mutation on the interaction” value was “with no effect”. Next, T524A: “with no effect”; D653E: “with no effect”; E362K: “with no effect”.

With A414V, the “effect of a mutation on the interaction” value is recorded as “disrupting interaction strength”. The entry for T475K is “with no effect”; for T555P it is “disrupting interaction strength”. The entry for T555E is “with no effect”; for L383A it is “with no effect”; for V499A it is “with no effect”. Next, K547E: “with no effect”; F481E: “disrupting interaction strength”; Q343A: “with no effect”. Take G565E: the “effect of a mutation on the interaction” value was “with no effect”.

As to I554G, the “effect of a mutation on the interaction” value is recorded as “disrupting interaction strength”. The entry for L624A is “with no effect”; for T397K it is “with no effect”; for Q508E it is “with no effect”. Next, S537F: “disrupting interaction strength”; D560A: “disrupting interaction strength”; L437A: “with no effect”.

In the case of L437K, the “effect of a mutation on the interaction” value was “disrupting interaction strength”. For the variant A612K, the “effect of a mutation on the interaction” value is on record as “with no effect”.

As for S427K, the “effect of a mutation on the interaction” value is on record as “with no effect”. The entry for T395E is “with no effect”.

In the case of L633K, the “effect of a mutation on the interaction” value is reported as “with no effect”. The entry for S482A is “with no effect”; for N663E it is “with no effect”. On to G717K, for which the “effect of a mutation on the interaction” value is given as “with no effect”.

S642E: the “effect of a mutation on the interaction” value is on record as “with no effect”.

As for P366E, the “effect of a mutation on the interaction” value is given as “with no effect”. Next, V606A: “with no effect”; N540A: “disrupting interaction strength”; F460K: “with no effect”. The entry for H617K is “with no effect”; for T639A it is “with no effect”.

With T639E, the “effect of a mutation on the interaction” value is “with no effect”.

With T467K, the “effect of a mutation on the interaction” value is “with no effect”. The entry for N708E is “with no effect”. Next, N705A: “with no effect”.

Consider N705K, for which the “effect of a mutation on the interaction” value was “with no effect”. Next, D636K: “with no effect”.

Take D636G: the “effect of a mutation on the interaction” value is on record as “disrupting interaction strength”.
